Measurements: patent CN115703835A (BOAOXIN BIOTECHNOLOGY NANJING CO LTD, dated 2023)

Experiments:
人CRR9 (表面表达人CRR9的A549细胞) = target: T1, 人CRR9 (表面表达人CRR9的A549细胞) (human, UniProt Q96KA5 1-538); assay: flow cytometry on A549 cells
T1 construct: whole, on cells; CRR9 as expressed by A549 cells; also called CLPTM1L; 顺铂耐药相关蛋白9
T1 sequence (looked up): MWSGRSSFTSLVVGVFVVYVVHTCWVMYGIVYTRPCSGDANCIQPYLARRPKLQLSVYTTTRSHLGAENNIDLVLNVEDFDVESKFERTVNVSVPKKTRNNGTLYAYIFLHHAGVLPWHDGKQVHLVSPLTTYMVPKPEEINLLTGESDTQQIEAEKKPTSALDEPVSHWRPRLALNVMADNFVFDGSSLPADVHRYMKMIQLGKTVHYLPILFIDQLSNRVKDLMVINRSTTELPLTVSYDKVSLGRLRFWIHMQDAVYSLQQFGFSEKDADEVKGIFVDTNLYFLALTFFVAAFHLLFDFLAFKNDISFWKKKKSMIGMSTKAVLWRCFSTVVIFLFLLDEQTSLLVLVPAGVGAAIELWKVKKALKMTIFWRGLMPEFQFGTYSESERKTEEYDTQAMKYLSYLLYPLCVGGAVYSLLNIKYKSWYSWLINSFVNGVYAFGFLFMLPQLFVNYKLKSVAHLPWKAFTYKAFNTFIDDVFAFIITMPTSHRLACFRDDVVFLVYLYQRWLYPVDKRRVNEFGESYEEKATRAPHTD

[1] = target: T2, 重组人CRR9蛋白 (human CRR9-TEV-Fc蛋白) (human, UniProt Q96KA5 32-284, biotin-labelled in the capture ELISA and the blocking ELISA (sites not given)); assay: capture ELISA: antibody captured on GAM(Fc), biotinylated human CRR9-TEV-Fc at 0.2 ug/ml, SA-HRP
T2 construct: range 32-284; Made in-house; The order of parts follows the printed name CRR9-TEV-Fc; also called 人CRR9-TEV-Fc; CRR9-生物素; not shown: TEV site; Fc
T2 sequence (looked up): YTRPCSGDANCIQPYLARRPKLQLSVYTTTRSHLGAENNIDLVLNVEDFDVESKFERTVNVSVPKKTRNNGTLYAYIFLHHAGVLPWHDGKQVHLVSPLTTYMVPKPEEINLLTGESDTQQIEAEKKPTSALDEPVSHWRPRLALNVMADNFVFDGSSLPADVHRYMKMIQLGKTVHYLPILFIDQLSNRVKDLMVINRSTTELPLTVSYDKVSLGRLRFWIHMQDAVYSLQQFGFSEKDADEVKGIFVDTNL

B1: 小鼠抗人CRR9单克隆抗体 A1C3G3B2 (antibody, V domains shown)
VH: QIQLVQSGPELKKPGETVKISCKASGYTFTNYGMSWVRQAPGKGLKWMGWINTNTGEPTYAEEFKGRFAFSLETSASTAYLQINNLKNEDTATYFCSRDYYYGGRGYFDYWGQGTTLTVSS
VL: QIVLTQSPAIMSASPGEKVTMTCSATSIVSYMHWYQQKSGTSPKRWIYDTSKLASGVPARFSGSGSGTSYSLTISSMEAADAATYYCQQWSYNPLTFGSGTKLELK
notes: Mouse monoclonal antibody purified from a hybridoma; also called 抗CRR9单克隆抗体
- binding result (人CRR9 (表面表达人CRR9的A549细胞)): binds
- binding result [1]: binds
